Earlier results on four substances are cited in PMC3509699.

Usually Kd stands for the equilibrium constant for the complex coming apart.

Where two headings read alike, the source gives them in different places.

For data set [1], the target named is KV1.3 (Homo sapiens) (UniProt P22001).
Data set [2] deals with KCa3.1 (Homo sapiens) (UniProt O15554).
In data set [3] the target is KV1.3 (Homo sapiens) (UniProt P22001). The source holds these as a separate data set.
Data set [4] addresses KCa3.1 (Homo sapiens) (UniProt O15554). This is another data set of the same source.

Sequence of UniProt O15554 (O15554 whole entry): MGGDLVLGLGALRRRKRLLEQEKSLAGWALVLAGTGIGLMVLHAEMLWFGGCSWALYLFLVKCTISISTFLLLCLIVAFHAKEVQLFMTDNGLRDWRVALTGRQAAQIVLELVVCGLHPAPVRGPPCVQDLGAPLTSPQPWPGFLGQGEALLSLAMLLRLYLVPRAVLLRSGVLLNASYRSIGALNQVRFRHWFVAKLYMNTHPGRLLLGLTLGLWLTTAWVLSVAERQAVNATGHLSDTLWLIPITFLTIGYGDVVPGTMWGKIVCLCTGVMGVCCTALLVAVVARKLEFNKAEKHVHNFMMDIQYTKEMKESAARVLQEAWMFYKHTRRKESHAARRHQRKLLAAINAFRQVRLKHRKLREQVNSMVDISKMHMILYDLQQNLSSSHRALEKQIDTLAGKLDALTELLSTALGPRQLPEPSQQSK
Sequence of UniProt P22001 (P22001 whole entry): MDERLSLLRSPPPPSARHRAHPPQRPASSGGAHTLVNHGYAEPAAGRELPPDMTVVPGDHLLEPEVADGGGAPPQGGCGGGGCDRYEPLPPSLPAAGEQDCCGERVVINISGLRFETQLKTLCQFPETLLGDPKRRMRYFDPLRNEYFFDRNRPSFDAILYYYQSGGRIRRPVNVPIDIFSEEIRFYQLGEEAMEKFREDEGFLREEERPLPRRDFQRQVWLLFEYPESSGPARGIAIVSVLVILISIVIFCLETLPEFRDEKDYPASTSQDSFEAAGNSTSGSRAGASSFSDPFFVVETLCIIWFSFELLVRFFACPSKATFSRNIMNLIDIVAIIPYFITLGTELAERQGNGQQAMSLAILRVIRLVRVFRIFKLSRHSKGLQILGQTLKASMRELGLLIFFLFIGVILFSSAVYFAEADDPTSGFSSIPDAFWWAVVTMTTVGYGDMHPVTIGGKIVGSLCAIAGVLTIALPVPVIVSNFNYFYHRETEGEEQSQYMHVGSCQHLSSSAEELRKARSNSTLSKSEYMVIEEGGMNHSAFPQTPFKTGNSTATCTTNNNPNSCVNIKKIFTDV

Regarding BmKTX (from UniProt Q9NII7), in the data set with KV1.3 (Homo sapiens) [1], the Kd was 0.2 nM. Consider “Charybdotoxin (ChTx) (from UniProt P13487)”, for which the Kd with KCa3.1 (Homo sapiens) [2] is 5 nM.

Margatoxin (from UniProt P40755): the Kd with KV1.3 (Homo sapiens) [3] is 0.11 nM. As to Maurotoxin (MTX) (from UniProt P80719), in the data set with KCa3.1 (Homo sapiens) [4], the Kd was 1 nM.
